Experimental data taken from patent publication US20200390902A1, “Antibody-Drug Conjugates Targeted at Human Aspartyl-(Asparaginyl)-B-Hydroxylase (HAAH)” (Panacea Pharmaceuticals, Inc., priority 2017, published 2020).

T1: HAAH catalytic domain (human, UniProt Q12797)
T1 sequence: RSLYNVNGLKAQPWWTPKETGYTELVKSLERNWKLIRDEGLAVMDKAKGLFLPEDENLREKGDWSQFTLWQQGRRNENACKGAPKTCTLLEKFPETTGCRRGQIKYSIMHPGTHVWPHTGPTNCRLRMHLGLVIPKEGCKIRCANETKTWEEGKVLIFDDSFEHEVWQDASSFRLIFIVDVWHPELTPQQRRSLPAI

T2: Human aspartyl (asparaginyl) β-hydroxylase (HAAH) (human, UniProt Q12797)
T2 sequence: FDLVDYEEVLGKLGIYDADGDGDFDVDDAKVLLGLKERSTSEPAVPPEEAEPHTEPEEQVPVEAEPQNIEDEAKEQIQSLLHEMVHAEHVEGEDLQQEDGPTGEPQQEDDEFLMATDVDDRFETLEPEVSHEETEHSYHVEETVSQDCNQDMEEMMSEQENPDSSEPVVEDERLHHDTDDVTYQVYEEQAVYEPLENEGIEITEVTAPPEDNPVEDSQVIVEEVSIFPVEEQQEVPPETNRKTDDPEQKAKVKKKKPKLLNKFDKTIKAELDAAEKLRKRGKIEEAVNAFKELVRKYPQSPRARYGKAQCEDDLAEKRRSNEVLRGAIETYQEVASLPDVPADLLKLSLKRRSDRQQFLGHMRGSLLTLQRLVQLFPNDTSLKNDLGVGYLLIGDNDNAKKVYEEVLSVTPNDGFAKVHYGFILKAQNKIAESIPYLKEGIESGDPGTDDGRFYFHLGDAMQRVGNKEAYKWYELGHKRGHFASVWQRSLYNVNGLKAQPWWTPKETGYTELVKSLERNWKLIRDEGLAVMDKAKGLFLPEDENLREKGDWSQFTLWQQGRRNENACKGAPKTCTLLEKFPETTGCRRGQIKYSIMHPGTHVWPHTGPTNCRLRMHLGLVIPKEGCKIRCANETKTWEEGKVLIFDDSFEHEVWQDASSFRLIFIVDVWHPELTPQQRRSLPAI


Experiments:
HAAH catalytic domain = biological target: T1, HAAH catalytic domain; test: ELISA on plates coated with HAAH catalytic domain
Experimental: The catalytic domain of HAAH (HAAH-cat) is exposed at the surface of HAAH-expressing cancer cells. The binding of SNS622-MC-DM1 at different drug-antibody ratio (DAR) and pH to HAAH-cat was measured using IgG1λ as control. The plates were coated with HAAH by treating with […] HAAH catalytic domain overnight. Following blocking with 1% Non-Fat Dry Milk in PBS for one hour, the plates were incubated for 45 minutes at 37° C. with 11.1 mg/ml IgG1λ; 9.6 mg/ml SNS622; 4.8 mg/ml SNS622-MC-DM1 at DAR 2.5, pH 7.0; 5.9 mg/ml SNS622-MC-DM1 at DAR 2.5, pH8.0; 6.1 mg/ml SNS622-DM1 at DAR 5.0, pH 7.0; 5.7 mg/ml SNS622-MC-DM1 at DAR 5.0, pH8.0; 4.1 mg/ml SNS622-DM1 at DAR 10.0, pH7.0; or 4.4 mg/ml SNS622-MC-DM1 at DAR 10.0, pH8.0. Following 5 PBS rinses the plates were incubated with 1:100 goat anti-human IgG (8)-HRP for 30 minutes at 37° C., Following five PBS rinses TMB substrate was added, and after a 15-minute incubation at room temperature, Stop solution was added to terminate the reactions. The plates were read at 450 nm using a 96-well plate reader (ELx808, BioTek). The binding results are shown below in Table VI

H460 lysate = test: ELISA on plates coated with H460 lysate, percent of loading amount bound
[1] = biological target: T2, Human aspartyl (asparaginyl) …; test: cell-based or functional assay
[2] = biological target: Human aspartyl (asparaginyl) β-hydroxylase (HAAH) (human) (UniProt Q12797)
[3] = biological target: Human aspartyl (asparaginyl) β-hydroxylase (HAAH) (human) (UniProt Q12797); remark: listed apart in the source
[4] = biological target: T2, Human aspartyl (asparaginyl) …; test: immunoassay on fixed H460 cells; printed as 'binding affinities'

Binder | % Binding (HAAH catalytic domain) [%] | further results
SNS622-DM1B1 (antibody, V domains shown, MC-DM1 on cysteine thiols of reduced disulfide bonds, positions not given; reaction DAR 5:1, pH 7, final DAR 3.22; MC-DM1 on cysteine thiols of reduced disulfide bonds, positions not given) VH: QVQLQQSGPGLVKPSQTLSLTCAISGDSVSSNSAAWNWIRQSPSRGLEWLGRTYYRSKWYNDYAVSVKSRITINPDTSKNQFSLQLNSVTPEDTAVYYCARTGYSSSWVVNFDYWGQGTLVTVSS VL: QPVLTQSPSASGTPGQRVTISCSGSSSNIGSNYVYWYQQLPGTAPKLLIYKNNQRPSGVPDRFSGSKSGTAASLAISGLQSEDEADYYCAAWDDSLRGYVFGTGTKLTVLG | 81.2 | –
SNS622-DM1A2 (antibody, V domains shown, MC-DM1 on cysteine thiols of reduced disulfide bonds, positions not given; reaction DAR 2.5:1, pH 8, final DAR 2.10; MC-DM1 on cysteine thiols of reduced disulfide bonds, positions not given) VH: QVQLQQSGPGLVKPSQTLSLTCAISGDSVSSNSAAWNWIRQSPSRGLEWLGRTYYRSKWYNDYAVSVKSRITINPDTSKNQFSLQLNSVTPEDTAVYYCARTGYSSSWVVNFDYWGQGTLVTVSS VL: QPVLTQSPSASGTPGQRVTISCSGSSSNIGSNYVYWYQQLPGTAPKLLIYKNNQRPSGVPDRFSGSKSGTAASLAISGLQSEDEADYYCAAWDDSLRGYVFGTGTKLTVLG | 84.8 | –
SNS622-DM1C1 (antibody, V domains shown, MC-DM1 on cysteine thiols of reduced disulfide bonds, positions not given; reaction DAR 10:1, pH 7, final DAR 5.08; MC-DM1 on cysteine thiols of reduced disulfide bonds, positions not given) VH: QVQLQQSGPGLVKPSQTLSLTCAISGDSVSSNSAAWNWIRQSPSRGLEWLGRTYYRSKWYNDYAVSVKSRITINPDTSKNQFSLQLNSVTPEDTAVYYCARTGYSSSWVVNFDYWGQGTLVTVSS VL: QPVLTQSPSASGTPGQRVTISCSGSSSNIGSNYVYWYQQLPGTAPKLLIYKNNQRPSGVPDRFSGSKSGTAASLAISGLQSEDEADYYCAAWDDSLRGYVFGTGTKLTVLG | 11.7 | –
SNS622-DM1B2 (antibody, V domains shown, MC-DM1 on cysteine thiols of reduced disulfide bonds, positions not given; reaction DAR 5:1, pH 8, final DAR 3.36; MC-DM1 on cysteine thiols of reduced disulfide bonds, positions not given) VH: QVQLQQSGPGLVKPSQTLSLTCAISGDSVSSNSAAWNWIRQSPSRGLEWLGRTYYRSKWYNDYAVSVKSRITINPDTSKNQFSLQLNSVTPEDTAVYYCARTGYSSSWVVNFDYWGQGTLVTVSS VL: QPVLTQSPSASGTPGQRVTISCSGSSSNIGSNYVYWYQQLPGTAPKLLIYKNNQRPSGVPDRFSGSKSGTAASLAISGLQSEDEADYYCAAWDDSLRGYVFGTGTKLTVLG | 89.5 | –
SNS622 (antibody, V domains shown) VH: QVQLQQSGPGLVKPSQTLSLTCAISGDSVSSNSAAWNWIRQSPSRGLEWLGRTYYRSKWYNDYAVSVKSRITINPDTSKNQFSLQLNSVTPEDTAVYYCARTGYSSSWVVNFDYWGQGTLVTVSS VL: QPVLTQSPSASGTPGQRVTISCSGSSSNIGSNYVYWYQQLPGTAPKLLIYKNNQRPSGVPDRFSGSKSGTAASLAISGLQSEDEADYYCAAWDDSLRGYVFGTGTKLTVLG | 97.6 | Percent binding (H460 lysate): 92%
SNS622-MC-vc-PAB-DM1 (antibody, V domains shown, MC-vc-PAB-DM1 on cysteine thiols of reduced disulfide bonds, positions not given; reaction DAR 10:1 gives final DAR 6.56 (also made at 2.5:1 and 5:1); MC-vc-PAB-DM1 on cysteine thiols of reduced disulfide bonds, positions not given) VH: QVQLQQSGPGLVKPSQTLSLTCAISGDSVSSNSAAWNWIRQSPSRGLEWLGRTYYRSKWYNDYAVSVKSRITINPDTSKNQFSLQLNSVTPEDTAVYYCARTGYSSSWVVNFDYWGQGTLVTVSS VL: QPVLTQSPSASGTPGQRVTISCSGSSSNIGSNYVYWYQQLPGTAPKLLIYKNNQRPSGVPDRFSGSKSGTAASLAISGLQSEDEADYYCAAWDDSLRGYVFGTGTKLTVLG | – | IC50 of MTS, H460 cells, 72 h [1]: 123 nM
SNS622-MC-PEG4-vc-PAB-DMEA-DUO (antibody, V domains shown, MC-PEG4-vc-PAB-DMEA-duocarmycin on cysteine thiols of reduced disulfide bonds, positions not given; reaction DAR 2.2:1, final DAR 1.92:1; MC-PEG4-vc-PAB-DMEA-duocarmycin on cysteine thiols of reduced disulfide bonds, positions not given) VH: QVQLQQSGPGLVKPSQTLSLTCAISGDSVSSNSAAWNWIRQSPSRGLEWLGRTYYRSKWYNDYAVSVKSRITINPDTSKNQFSLQLNSVTPEDTAVYYCARTGYSSSWVVNFDYWGQGTLVTVSS VL: QPVLTQSPSASGTPGQRVTISCSGSSSNIGSNYVYWYQQLPGTAPKLLIYKNNQRPSGVPDRFSGSKSGTAASLAISGLQSEDEADYYCAAWDDSLRGYVFGTGTKLTVLG | – | IC50, MOLM-14 cell viability, MTS assay, 24 h [2]: 60 nM; EC50, H460 cell viability, MTS assay, 24 h [3]: 300 nM; Kd [4]: ~0.5 nM
